Biological target: T1, human TRBC1 (construct not named) (human, UniProt P01850 1-129, limits assumed)
T1 construct: also called hTRBC1
Assay: method not stated

T1 sequence (P01850 1-129 limits assumed): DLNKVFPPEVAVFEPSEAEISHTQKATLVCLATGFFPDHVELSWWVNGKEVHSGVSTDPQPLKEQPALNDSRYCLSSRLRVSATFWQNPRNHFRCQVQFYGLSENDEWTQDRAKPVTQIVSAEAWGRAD

- Kd: 110 nM
B1: BJM0578 (Example 8; format not stated) (antibody, V domains shown)
VH: QVQLVQSGAEVKKPGSSVKVSCKASGYTFTGYVMHWVRQAPGQGLEWMGFIIPIFGTANYAQKFQGRVTITSDKSTTTAYMELSSLRSEDTAVYYCARGAGYNFDGAYRFFDFWGQGTLVTVSS
VL: DVVMTQSPLSLPVTLGQPASISCRSSQRLVHSNGNTYLHWYQQRPGQSPRLLIYRVSNRFPGVPDRFSGSGSGTDFTLKISRVEAEDVGVYFCSQSTHVPYTFGGGTKVEIK
notes: Germlined variant of BIM0460

Source: patent US20230357395A1 (MARENGO THERAPEUTICS, published 2023)
